Measured values: publication PMC11467669

Biological target: full-length USP8 (a.a. 7-1110) phosphorylated at S718 by AMPK (human) (UniProt P40818)
Test: SEC-MALLS

full-length USP8 (a.a. 7-1110) phosphorylated at S718 by AMPK (human), sequence (P40818 7-1110): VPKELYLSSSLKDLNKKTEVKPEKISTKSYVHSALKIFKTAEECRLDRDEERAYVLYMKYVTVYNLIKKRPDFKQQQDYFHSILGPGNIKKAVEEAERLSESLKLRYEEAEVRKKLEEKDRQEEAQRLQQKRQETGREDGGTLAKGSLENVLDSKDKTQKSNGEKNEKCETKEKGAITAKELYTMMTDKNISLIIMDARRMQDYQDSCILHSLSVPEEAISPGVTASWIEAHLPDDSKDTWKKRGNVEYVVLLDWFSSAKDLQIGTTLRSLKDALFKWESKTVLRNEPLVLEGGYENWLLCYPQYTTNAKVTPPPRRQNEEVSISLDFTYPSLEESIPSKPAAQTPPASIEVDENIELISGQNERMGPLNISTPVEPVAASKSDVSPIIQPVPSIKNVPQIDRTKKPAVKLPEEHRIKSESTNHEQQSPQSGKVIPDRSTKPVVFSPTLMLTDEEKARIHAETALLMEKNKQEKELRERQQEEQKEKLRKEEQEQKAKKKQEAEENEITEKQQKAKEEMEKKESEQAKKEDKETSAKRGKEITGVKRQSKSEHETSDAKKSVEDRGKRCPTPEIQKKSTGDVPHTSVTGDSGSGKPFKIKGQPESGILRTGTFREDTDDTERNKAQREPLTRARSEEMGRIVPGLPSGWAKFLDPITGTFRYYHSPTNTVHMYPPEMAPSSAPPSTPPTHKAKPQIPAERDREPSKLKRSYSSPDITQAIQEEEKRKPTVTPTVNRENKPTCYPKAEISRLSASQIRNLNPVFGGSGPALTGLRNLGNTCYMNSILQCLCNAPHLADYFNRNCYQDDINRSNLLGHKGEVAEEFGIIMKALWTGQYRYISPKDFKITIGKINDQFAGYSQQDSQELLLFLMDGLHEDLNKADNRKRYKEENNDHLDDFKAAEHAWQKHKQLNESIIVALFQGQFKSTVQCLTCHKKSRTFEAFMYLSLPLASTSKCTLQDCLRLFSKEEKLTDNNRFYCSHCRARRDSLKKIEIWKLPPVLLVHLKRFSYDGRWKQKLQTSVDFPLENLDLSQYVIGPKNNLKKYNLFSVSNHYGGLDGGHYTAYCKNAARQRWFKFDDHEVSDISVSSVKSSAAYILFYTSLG

Substance: 14-3-3γ (from UniProt P61981 1-247) (natural protein)
- stoichiometry N (14-3-3γ dimer per USP8): 1
